Assay [1] concerns the target T1, human CCR8 carried on proteoliposomes (human, UniProt P51685 1-355). Nature of the assay: SPR.
The target in assay [2] is T2, human CCR4 carried on liposomes (human, UniProt P51679 1-360).
T2 sequence (looked up): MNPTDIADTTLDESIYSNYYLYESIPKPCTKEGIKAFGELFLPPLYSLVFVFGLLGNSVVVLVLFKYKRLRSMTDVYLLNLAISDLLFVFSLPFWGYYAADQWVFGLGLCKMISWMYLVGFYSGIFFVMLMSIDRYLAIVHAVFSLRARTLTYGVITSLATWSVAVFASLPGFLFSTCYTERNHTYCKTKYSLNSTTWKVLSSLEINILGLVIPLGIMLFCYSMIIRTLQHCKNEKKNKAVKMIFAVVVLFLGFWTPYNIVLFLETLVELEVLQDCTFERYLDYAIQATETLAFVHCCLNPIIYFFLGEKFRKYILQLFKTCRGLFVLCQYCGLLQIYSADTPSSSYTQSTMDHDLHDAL
In words: SPR.

Assay [3] has as its target T1, human CCR8 carried on proteoliposomes. In words: SPR. This is another data set of the same source.
In assay [4] the target is T3, human CCR8 (HA-tagged) on stably transfected HEK293 cells (human, UniProt P51685 1-355). In words: flow cytometry on cells.
Assay [5] addresses T3, human CCR8 (HA-tagged) on stably …. In words: flow cytometry on cells. The source holds these as a separate data set.

Where two headings read alike, the source gives them in different places.

B1: biotinylated human recombinant CCL17 (ligand, UniProt Q92583 24-94, looked up)
chain: ARGTNVGRECCLEYFKGAIPLRKLKTWYQTSEDCSRDAIVFVTVQGRAICSDPNNKRVKNAVKYLQSLERS
modifications: biotin (biotinylated; site not stated)
As for B1, the values for the Kd in assay [1] and in assay [3] were 11.7 nM and 1.1 ± 0.4 nM, respectively. Also, the binding result in assay [2] is on record as “binds”. For the same molecule, the off-rate constant (koff) in assay [3] stood at 0.00042 s⁻¹.

B2: unlabeled human recombinant CCL17 (ligand, UniProt Q92583 24-94, looked up)
chain: B1 chain
Turning to B2, the IC50 stood at 4.9 nM in assay [4] and 9.4 nM in assay [5].

B3: unlabeled human recombinant CCL1 (ligand, UniProt P22362 24-96, looked up)
chain: KSMQVPFSRCCFSFAEQEIPLRAILCYRNTSSICSNEGLIFKLKRGKEACALDTVGWVQRHRKMLRHCPSKRK
B3: the IC50 in assay [4] came to 0.58 nM.

Values taken from paper PMC7616283 (Nature cardiovascular research, 2024).
